Test system: Escherichia coli TOP10
Test: shrunken log2 fold change of peptide-encoding DNA abundance (4.5 h post-induction vs induction); higher = less antimicrobial activity (less host growth inhibition)
Settings: time post-induction: 4.5 h; library: site-saturation at positions 5, 18, 19, 20
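Note: peptides expressed intracellularly from a pBAD plasmid library in pooled LB shake-flask culture, induced with 0.3% L-arabinose, DNA abundance read by NGS, three biological replicates, DESeq2 with apeglm shrinkage.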

| Sequence | shrunken log2 fold change |
| --- | --- |
| RRIRMRPPRLPRPRPRPYTWPRP | -0.101 |
| RRIRQRPPRLPRPRPRPYIPPRP | -0.619 |
| RRIRIRPPRLPRPRPRPPYGPRP | -0.202 |
| RRIRLRPPRLPRPRPRPPVPPRP | 0.374 |
| RRIRNRPPRLPRPRPRPPWVPRP | -0.0522 |
| RRIRIRPPRLPRPRPRPNHLPRP | -0.844 |
| RRIRWRPPRLPRPRPRPNPWPRP | 0.265 |
| RRIRFRPPRLPRPRPRPVWAPRP | 0.137 |
| RRIRLRPPRLPRPRPRPDRKPRP | -0.0365 |
| RRIRNRPPRLPRPRPRPKEGPRP | -0.0345 |
| RRIRFRPPRLPRPRPRPKKFPRP | -0.128 |
| RRIRQRPPRLPRPRPRPQCKPRP | -0.102 |
| RRIRMRPPRLPRPRPRPGSYPRP | 0.124 |
| RRIRPRPPRLPRPRPRPVIIPRP | -0.286 |
| RRIRARPPRLPRPRPRPTDPPRP | 0.2 |
| RRIRPRPPRLPRPRPRPSWLPRP | -0.0766 |
| RRIRIRPPRLPRPRPRPEMEPRP | -0.0895 |
| RRIRMRPPRLPRPRPRPHCFPRP | -0.0715 |
| RRIRQRPPRLPRPRPRPTKVPRP | -0.0676 |
| RRIRWRPPRLPRPRPRPSGYPRP | 0.141 |
| RRIRQRPPRLPRPRPRPLRWPRP | 0.585 |
| RRIRYRPPRLPRPRPRPLPKPRP | 0.116 |
| RRIRQRPPRLPRPRPRPNLHPRP | -0.255 |
| RRIRSRPPRLPRPRPRPQVCPRP | -0.0852 |
| RRIRGRPPRLPRPRPRPIGEPRP | 0.187 |

| Sequence | shrunken log2 fold change |
| --- | --- |
| RRIRARPPRLPRPRPRPILGPRP | 0.0597 |
| RRIRHRPPRLPRPRPRPGAKPRP | 0.219 |
| RRIRWRPPRLPRPRPRPCPIPRP | -0.204 |
| RRIRPRPPRLPRPRPRPWFFPRP | -0.185 |
| RRIRIRPPRLPRPRPRPAFVPRP | -0.0212 |
| RRIRQRPPRLPRPRPRPLGLPRP | 0.103 |
| RRIRVRPPRLPRPRPRPYQLPRP | -0.228 |
| RRIRGRPPRLPRPRPRPYMIPRP | 0.0548 |
| RRIRERPPRLPRPRPRPGLLPRP | -0.0986 |
| RRIRTRPPRLPRPRPRPNTIPRP | -0.596 |
| RRIRSRPPRLPRPRPRPPYTPRP | -0.395 |
| RRIRGRPPRLPRPRPRPPRPPRP | 1.08 |
| RRIRSRPPRLPRPRPRPQQSPRP | -0.235 |
| RRIRARPPRLPRPRPRPHKVPRP | 0.31 |
| RRIRWRPPRLPRPRPRPGVVPRP | 0.576 |
| RRIRKRPPRLPRPRPRPPHVPRP | 0.498 |
| RRIRIRPPRLPRPRPRPFGSPRP | 0.00777 |
| RRIRIRPPRLPRPRPRPPYEPRP | -0.315 |
| RRIRHRPPRLPRPRPRPLFNPRP | -0.58 |
| RRIRSRPPRLPRPRPRPHFFPRP | -0.0717 |
| RRIRDRPPRLPRPRPRPIWKPRP | -0.00783 |
| RRIRPRPPRLPRPRPRPRVIPRP | 0.033 |
| RRIRHRPPRLPRPRPRPIRPPRP | -0.125 |
| RRIRARPPRLPRPRPRPHSEPRP | -0.0859 |
| RRIRQRPPRLPRPRPRPNRSPRP | -0.0178 |
